The chains are these.
B6: Streptococcus pneumoniae HigA antitoxin (natural protein)
chain: MKNNAIGSNWKDVRAELFSKEEILESDMRVAIMSELIEARNEKGISQKKLEEMSGVSQPVIARMETGKTSPQLDTVLKVLASLGKTLAVVPLEHEQV
notes: Cloned with Nde1/Xho1 into pET-21a(+); Forms a dimer within the HigB-(HigA)2-HigB heterotetramer; also called WT HigA; full-length HigA

Data set [1] concerns the target T1, HigB;HigA (Streptococcus pneumoniae …, UniProt A0A0H2UQ08;A0A0H2UQ20 1-121;1-97, |). As to the kind of experiment: EMSA; up to 0.6 mM protein; ITC: 50 mM MES pH 6.0, 100 mM NaCl, 25 C; […]. The settings on record: protein: recombinant;recombinant; chain copies: 2;2; blunt. (Mobility shift assays separate free from complexed probe on a gel.)
In data set [2] the target is T2, HigA (Streptococcus pneumoniae TIGR4, UniProt A0A0H2UQ20 1-97). As to the kind of experiment: ITC; n=0.51; ITC: 50 mM MES pH 6.0, 100 mM NaCl, 25 C; […]. The settings on record: protein: recombinant; tags: pET-21a(+), stop codon in reverse primer; chain copies: 2; blunt.
Data set [3] addresses T1, HigB;HigA. In words: ITC; n=0.49; ITC: 50 mM MES pH 6.0, 100 mM NaCl, 25 C; […]. Conditions: protein: recombinant;recombinant; chain copies: 2;2; blunt.
The target of data set [4] is T1, HigB;HigA. In words: ITC; n=0.48; ITC: 50 mM MES pH 6.0, 100 mM NaCl, 25 C; […]. The settings on record: protein: recombinant;recombinant; chain copies: 2;2; blunt. For orientation: In ITC the heat of successive injections is recorded.
Data set [5] concerns the target B6. As to the kind of experiment: cell-based or functional assay.
Data set [6] concerns the molecule itself. As to the kind of experiment: crystal structure; HigBA complex, sitting-drop vapor diffusion at 293 K; protein 11 mg/mL in 50 mM MES pH 6.0, 500 mM NaCl; native data to 2.30 Å, SeMet SAD phasing at 2.80 Å.
In data set [7] the target is T2, HigA. In words: ITC; n=0.50; ITC: 50 mM MES pH 6.0, 100 mM NaCl, 25 C; […]. Conditions: protein: recombinant; tags: pET-21a(+), stop codon in reverse primer; chain copies: 2; blunt.
Data set [8] deals with the molecule itself. As to the kind of experiment: SEC; oligomeric state from a molecular weight comparison with various reference proteins (Fig. S2). A general note: SEC sorts molecules by how far they enter the pores of the column.
Data set [9] has as its target T1, HigB;HigA. In words: ITC; n=0.53; ITC: 50 mM MES pH 6.0, 100 mM NaCl, 25 C; […]. Conditions: protein: recombinant;recombinant; chain copies: 2;2; blunt.
Data set [10] concerns the target T2, HigA. The description is as above. Conditions: protein: recombinant; tags: pET-21a(+), stop codon in reverse primer; chain copies: 2; blunt.

For orientation: Kd means the constant that tells how readily two partners part at equilibrium. As usually defined, the stoichiometry N is a count of units in the complex or per binding partner.

B1: B (dsDNA)
DNA 1: TAATAGAATAATAAGTATCACTCCTTTA
DNA 2: TAAAGGAGTGATACTTATTATTCTATTA
With B1, the binding result in the data set with HigB;HigA [1] is reported as “no binding”.

B2: Pal-II (dsDNA)
DNA 1: AACTTAAAAGTATTTACAAACAATAACTTTTAGGTT
DNA 2: AACCTAAAAGTTATTGTTTGTAAATACTTTTAAGTT
Take B2: the Kd was 2530 ± 110 nM in the data set with HigA [2] and 700 ± 80 nM with HigB;HigA [3].

B3: Pal-IV (dsDNA)
DNA 1: TAGGTTATAATTGTTATTAGGAA
DNA 2: TTCCTAATAACAATTATAACCTA
For the molecule B3, the dissociation constant (Kd) with HigB;HigA [4] came to 1190 ± 140 nM.

B4: Streptococcus pneumoniae HigB toxin (enzyme)
chain: MHNIYFYKDKNGNEPVFDYMRELTSKKGKDSRIKLNKINDYIELLSQHGTRAGEPYIKHLDAEIWELRPLRDRILFVAWMDGSFVLLHHFMKRTQKTPKREIEQAKRELADLKERGLDNEK
As for B4, the “ribonuclease activity (fluorescence-labeled RNA substrate) of 2 μM HigBA after addition of 10 μM HigB α2 helix-mimicking peptide, relative to free HigB” value in data set [5] is around 80%.

B5: X (dsDNA)
DNA 1: GATTTTTTTTGATTTTTTT
DNA 2: AAAAAAATCAAAAAAAATC
Turning to B5, in the data set with HigB;HigA [1], the binding result is recorded as “no binding”.
Regarding B6, in data set [6], the binding result is “binds”.

B7: Pal-III (dsDNA)
DNA 1: TATTTTAATAACTTAAAAGT
DNA 2: ACTTTTAAGTTATTAAAATA
As for B7, the Kd with HigB;HigA [4] is 200 ± 10 nM; with HigA [7], 1340 ± 10 nM.

B8: HigA^19–97 (domain or fragment)
chain: SKEEILESDMRVAIMSELIEARNEKGISQKKLEEMSGVSQPVIARMETGKTSPQLDTVLKVLASLGKTLAVVPLEHEQV
notes: HigA antitoxin, S. pneumoniae strain TIGR4, gene sp_1144, residues 19 to 97; Made 13C/15N-labelled for NMR; tag removed with thrombin (residues of the tag after the thrombin site may remain); also called deletion mutant HigA19-97
As to B8, the “stoichiometry N” value in data set [8] was found to be 2.

B9: Pal-I (dsDNA)
DNA 1: AGCATCTAGGAAACTAGGTGCT
DNA 2: AGCACCTAGTTTCCTAGATGCT
For B9, the Kd in the data set with HigB;HigA [9] stood at 460 ± 30 nM; with HigA [10], 1610 ± 20 nM.

The record behind these values is article PMC7984235, “Structure‐based design of peptides that trigger Streptococcus pneumoniae cell death” (The Febs Journal, 2020).
